# B1: hSIA101 (antibody, V domains shown)
# VH: EVQLVQSGAEVKKPGASVKVSCKASGYTFTDHAIHWVRQAPGQGLEWMGYFSPGNDDIKYNEKFRGRVTMTADKSSSTAYMELRSLRSDDTAVYFCKRSLSTPYWGQGTLVTVSS
# VL: DIVMTQSPDSLAVSLGERATINCKSSQSLLNRGNHKNYLTWYQQKPGQPPKLLIYWASTRESGVPDRFSGSGSGTDFTLTISSLQAEDVAVYYCQNDYTYPYTFGQGTKVEIK
# Assays:
# [1] = system: normal human tissues; assay: Tissue cross-reactivity study, frozen tissue sections; format: binding; set-up: key to tissue staining: 1+=weak staining; 2+=moderate staining; 3+=strong staining; 4+=intense staining; Neg=negative; freq=frequent (staining in >75%-100% of cells); occ=occasional (staining in >25%-50% of cells); rare refers to staining in 1-5% of cells; conditions: for tissue staining: Human, 1-3 μg/ml
# Procedure: (§1) Tissue cross-reactivity studies were conducted to assess the binding profile (both on- and potential off-target binding) to human and relevant species used in nonclinical safety testing. Humanized anti-STn antibodies were examined for binding to a panel of normal human, rat, mouse, and cynomolgus monkey tissues. The study was conducted on […] normal frozen tissue sections at 1-3 μg/ml: heart, brain, kidney, stomach, lung, small intestines, colon, liver, pancreas, spleen and bone marrow. The positive control was a human pancreatic neoplasm that contained STn positive cancer cells and the negative control was normal stromal cells contained within the same specimen. Staining across all normal tissues was restricted to the cytoplasm. Additional analyses were conducted without primary antibody or using isotype control IgG as negative controls.
# (§2) Antibodies were also found to cross react with similar types of tissue from Cynomolgus monkey (see Table 17) and rat (not shown).
# [2] = system: cynomolgus monkey tissues; assay: as above; format: binding; set-up: key: 1+=weak staining; 2+=moderate staining; 3+=strong staining; 4+=intense staining; Neg=negative; freq=frequent (staining in >75%-100% of cells); occ=occasional (staining in >25%-50% of cells); rare refers to staining in 1-5% of cells; conditions: Cyno, 1-3 μg/ml
# Procedure: as §1, §2
# [3] = system: HT29; assay: STn expression on CRC line by flow cytometry using anti-STn antibodies; format: cell-based; conditions: detected using hSIA101
# Procedure: (§3) Mouse antibodies were characterized for in vitro and in vivo efficacy in breast, colon and ovarian cancer models. The antibodies were used to identify CRC cell lines that express STn on the surface. Five CRC lines were incubated in vitro and grown to confluency. % STn expression was determined by flow cytometry using anti-STn antibodies. Approximately 30-70% of cultured SW403, COL0205 and LS174T cells naturally expressed STn on the surface (as detected using mSIA103), while HT29 and RKO had very little to no detectable STn (as detected using hSIA101) on their cell surface (see Table 6).
# [4] = system: RKO; assay: as above; format: cell-based; conditions: detected using hSIA101
# Procedure: as §3
# [5] = system: array glycans (AcSTn, GcSTn, Tn and others); assay: Glycan array analysis; format: binding; set-up: key: Group 1: capable of binding AcSTn and GcSTn, if they bind to glycans 5, 6, 23 and 24; Group 2: capable of binding STn as well as some related structures that include an O-linkage to serine or threonine, if they bind to glycans 5, 6, 23, 24, 27 and 31; Group 3: capable of binding STn, but may also bind a broader set of related structures) if they bind glycans 5, 6, 23, 24, 17, 3, 19, 37, 27 and 31; Group 4: capable of binding to both AcSTn and GcSTn as well as the un-sialylated Tn antigen (therefore having broader specificity) if they bind to glycans 5, 6, 23, 24 and 47
# Procedure: Optimized glycan arrays are utilized to test antibody affinity and specificity for multiple glycans in a single experiment. Glycan arrays include 71 chemically synthesized and well-defined glycans, most of which are Neu5Ac and Neu5Gc glycan pairs.
# 300 ml of epoxy blocking buffer is prepared by combining 15 ml of 2 M Tris buffer (pH 8) with 0.9 ml of 16.6 M ethanolamine and 284.1 ml of distilled water. The solution is brought to a final pH of 9.0 with HCl. The solution is filtered using a […] nitrocellulose membrane. The epoxy buffer solution as well as 1 L of distilled water are pre-warmed to 50° C. Glass slides are arranged in a slide holder and quickly submerged in a staining tub with the warmed epoxy blocking buffer. Slides are incubated in the epoxy blocking buffer for 1 hour at 50° C. with periodic shaking to deactivate epoxy binding sites. Next, slides are rinsed and blocked with PBS with 1% OVA at 25° C. for one hour. Serum samples with polyclonal antibodies (1:1000) or purified monoclonal antibodies (1 ug/mL), are diluted in PBS with 1% OVA and added to the glycan array for one hour at 25° C. After extensive washing, binding of antibodies are detected by incubating glycan microarray slides with Cy3-conjugated anti-mouse IgG (Jackson Immunoresearch, West Grove, Pa.) for one hour. Slides are then washed extensively, dried and scanned with a Genepix 4000B scanner (Laser at 100%; gain at 350; 10 μm pixels). Raw data from scanned images are extracted using the Genepix software and analysis of raw data is carried out.
# Based on array analysis, antibodies are classified according to array glycan binding profile. Antibodies are classified as “Group 1” antibodies, capable of binding AcSTn and GcSTn, if they bind to glycans 5, 6, 23 and 24. Such antibodies are referred to as Pan-STn antibodies due to their ability to associate with a wider range of STn structures and the portion of STn indicated by the largest ellipse in FIG. 1A. […]
# [6] = Small Intestine Epithelial Cells
molecule,measurement,setting,value
B1,"staining of cerebrum, cerebellum, kidney and liver",[1],did not stain
same,staining of positive control tissue (pancreatic neoplasm),[1],strong membrane staining
same,tissue staining,[1]; Colon Epithelial Cells,1+ freq (cytoplasm)
same,tissue staining,[1]; Colon Vessel,Neg
same,tissue staining,[1]; Heart Vessel,2+ rare (cytoplasm)
same,tissue staining,[1]; Lung Epithelium,Neg
same,tissue staining,[1]; Pancreas Vessel,Neg
same,tissue staining,[1]; [6],2-4+ freq (cytoplasm)
same,tissue staining,[1]; Spleen Vessel,2-3+ freq (cytoplasm)
same,tissue staining,[1]; Stomach Epithelial Cells,2-3+ freq (cytoplasm)
same,tissue staining,[1]; Stomach Vessel,Neg
same,cross-reactivity with normal human tissues,[1]; among the three tested antibodies,lowest cross-reactivity
same,staining on cell membranes in any tissue,[1]; normal tissues,No staining was observed
same,tissue staining,[2]; Colon Epithelial Cells,Neg
same,tissue staining,[2]; Colon Vessel,4+ freq (cytoplasm)
same,tissue staining,[2]; Heart Vessel,Neg
same,tissue staining,[2]; Lung Epithelium,2-3+ freq (cytoplasm)
same,tissue staining,[2]; Pancreas Vessel,2-3+ freq (cytoplasm)
same,tissue staining,[2]; [6],3-4+ freq (cytoplasm)
same,tissue staining,[2]; Spleen Vessel,Neg
same,tissue staining,[2]; Stomach Epithelial Cells,2-3+ occ (cytoplasm)
same,tissue staining,[2]; Stomach Vessel,2+ occ (cytoplasm)
same,% STn expression,[3],Low to non-detectable
same,% STn expression,[4],Low to non-detectable
same,Array glycan binding profile,[5],Group 1

# Source: patent US20230001007A1, “Glycan-Interacting Compounds and Methods of Use” (Seagen Inc., priority 2017, published 2023)
